One block for each binder: values may come before it.
How the values were obtained:
[1] = molecular target: T1, recombinant human full-length SRSF2, N-terminally 8X histidine- and SUMO-tagged and C-terminus Strep-tagged (human, UniProt Q01130 1-221, RED-tris-NTA dye on the His tag); experiment: MST
T1 chain: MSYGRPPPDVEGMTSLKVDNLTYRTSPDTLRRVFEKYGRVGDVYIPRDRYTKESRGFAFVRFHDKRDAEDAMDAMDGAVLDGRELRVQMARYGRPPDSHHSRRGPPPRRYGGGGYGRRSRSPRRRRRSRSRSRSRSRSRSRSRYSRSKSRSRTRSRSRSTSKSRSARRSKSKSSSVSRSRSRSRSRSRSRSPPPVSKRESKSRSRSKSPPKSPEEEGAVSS

[2] = molecular target: T2, recombinant WASP, full-length (1-502 a.a.) with a GST tag at the N-terminus (human, UniProt P42768 1-502); experiment: MST; Monolith NT.115; SRSF2 labelled with RED-tris-NTA at 1 nM, WASP titrated 90 pM to 3 µM; 50 mM HEPES pH 7.5, 10 mM MgCl2, 100 mM KCl, 0.1 mg/ml BSA, 5% glycerol, 1 mM DTT; conditions: both partners purified
T2 construct: Wiskott-Aldrich syndrome protein (WASP), human, full-length protein, 1-502 a.a; source: bought: Abnova (in vitro wheat germ expression system, purified by Glutathione Sepharose 4 Fast Flow); not shown: GST, N-terminal, kept
T2 sequence (looked up): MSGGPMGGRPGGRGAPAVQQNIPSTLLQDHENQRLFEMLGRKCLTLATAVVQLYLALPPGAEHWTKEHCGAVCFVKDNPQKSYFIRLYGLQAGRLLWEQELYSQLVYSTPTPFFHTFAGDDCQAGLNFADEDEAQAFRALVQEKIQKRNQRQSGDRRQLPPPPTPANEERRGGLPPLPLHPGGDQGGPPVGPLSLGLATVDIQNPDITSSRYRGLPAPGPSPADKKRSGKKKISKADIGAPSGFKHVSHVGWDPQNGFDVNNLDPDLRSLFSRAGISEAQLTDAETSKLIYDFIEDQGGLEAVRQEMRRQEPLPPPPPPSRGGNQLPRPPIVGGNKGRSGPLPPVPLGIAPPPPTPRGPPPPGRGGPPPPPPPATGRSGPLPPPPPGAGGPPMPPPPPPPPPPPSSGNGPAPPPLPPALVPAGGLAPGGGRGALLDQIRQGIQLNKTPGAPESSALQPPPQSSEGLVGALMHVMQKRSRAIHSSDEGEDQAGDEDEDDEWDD

- Kd [1]: 211 nM
B1: recombinant WASP, full-length (1-502 a.a.) with a GST tag at the N-terminus (natural protein)
chain: T2 sequence (looked up)

- binding result [2]: binds
B2: recombinant human full-length SRSF2, N-terminally 8X histidine- and SUMO-tagged and C-terminus Strep-tagged (natural protein, UniProt Q01130 1-221, looked up)
chain: T1 chain
modifications: RED-tris-NTA dye on the His tag
notes: No tag cleavage step is described in the purification, so SUMO and Strep were probably still on the protein; The MST methods call it His6-tagged, the expression methods 8X histidine; also called His6-tagged SRSF2; recombinant SRSF2; source: E. coli BL21 (DE3), purified (HisTrap HP, dialysis); not shown: His8, N-terminal, kept

— PMC9233711, “Wiskott-Aldrich syndrome protein forms nuclear condensates and regulates alternative splicing” (Nature Communications, 2022)
